Assay results as given in paper PMC9663306.

Experiment: flow cytometry of surface IL-17RC, ST2 cells
Conditions: glycan lost; control: SF-IL-17RCWT

B1: IL-17RC: SF-IL-17RCMutE (protein)
parent chain: MPVSWFLLSLALGRNPVVVSLERLMEPQDTARCSLGLSCHLWDGDVLCLPGSLQSAPGPVLVPTRLQTELVLRCPQKTDCALCVRVVVHLAVHGHWAEPEEAGKSDSELQESRNASLQAQVVLSFQAYPIARCALLEVQVPADLVQPGQSVGSAVFDCFEASLGAEVQIWSYTKPRYQKELNLTQQLPDCRGLEVRDSIQSCWVLPWLNVSTDGDNVLLTLDVSEEQDFSFLLYLRPVPDALKSLWYKNLTGPQNITLNHTDLVPCLCIQVWSLEPDSERVEFCPFREDPGAHRNLWHIARLRVLSPGVWQLDAPCCLPGKVTLCWQAPDQSPCQPLVPPVPQKNATVNEPQDFQLVAGHPNLCVQVSTWEKVQLQACLWADSLGPFKDDMLLVEMKTGLNNTSVCALEPSGCTPLPSMASTRAARLGEELLQDFRSHQCMQLWNDDNMGSLWACPMDKYIHRRWVLVWLACLLLAAALFFFLLLKKDRRKAARGSRTALLLHSADGAGYERLVGALASALSQMPLRVAVDLWSRRELSAHGALAWFHHQRRRILQEGGVVILLFSPAAVAQCQQWLQLQTVEPGPHDALAAWLSCVLPDFLQGRATGRYVGVYFDGLLHPDSVPSPFRVAPLFSLPSQLPAFLDALQGGCSTSAGRPADRVERVTQALRSALDSCTSSSEAPGCCEEWDLGPCTTLE
In the case of B1, the localisation_or_trafficking is reported as “decreases”.
